Changes are numbered by the printed parent chain.
T1: cCD137-mFc-Avi (cynomolgus; mouse)
T1 construct: also called cynomolgus CD137-mFc-Avi; Cyno CD137-mFc-Avi; not shown: mouse IgG2a Fc domain (mIgG2a Fc)
T1 chain: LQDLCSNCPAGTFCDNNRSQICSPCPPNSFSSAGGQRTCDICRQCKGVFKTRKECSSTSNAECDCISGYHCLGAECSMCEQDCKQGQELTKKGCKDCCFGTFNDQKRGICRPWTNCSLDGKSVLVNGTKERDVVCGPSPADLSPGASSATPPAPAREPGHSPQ

T2: human GITR (human, UniProt Q9Y5U5 26-161, limits assumed)
T2 sequence (looked up): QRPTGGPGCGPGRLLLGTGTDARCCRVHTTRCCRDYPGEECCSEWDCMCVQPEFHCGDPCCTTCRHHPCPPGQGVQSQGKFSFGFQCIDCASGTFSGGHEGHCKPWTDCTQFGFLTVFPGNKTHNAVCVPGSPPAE

T3: human OX40 (human, UniProt P43489 29-216)
T3 sequence (looked up): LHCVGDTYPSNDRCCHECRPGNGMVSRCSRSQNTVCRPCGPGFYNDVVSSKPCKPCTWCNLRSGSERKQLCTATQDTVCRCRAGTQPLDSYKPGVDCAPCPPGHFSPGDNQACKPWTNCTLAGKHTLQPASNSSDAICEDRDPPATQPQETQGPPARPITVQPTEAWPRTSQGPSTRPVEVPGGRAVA

B1: FS22-053 in HeID1.3 mock mAb^2 format (bispecific antibody, human IgG1, kappa)
heavy: QVQLQESGPGLVRPSQTLSLTCTVSGSTFSGYGVNWVRQPPGRGLEWIGMIWGDGNTDYNSALKSRVTMLVDTSKNQFSLRLSSVTAADTAVYYCARERDYRLDYWGQGSLVTVSSASTKGPSVFPLAPSSKSTSGGTAALGCLVKDYFPEPVTVSWNSGALTSGVHTFPAVLQSSGLYSLSSVVTVPSSSLGTQTYICNVNHKPSNTKVDKKVEPKSCDKTHTCPPCPAPELLGGPSVFLFPPKPKDTLMISRTPEVTCVVVDVSHEDPEVKFNWYVDGVEVHNAKTKPREEQYNSTYRVVSVLTVLHQDWLNGKEYKCKVSNKALPAPIEKTISKAKGQPREPQVYTLPPSRDELNPPYLFSNQVSLTCLVKGFYPSDIAVEWESNGQPENNYKTTPPVLDSDGSFFLYSKLTVYYNRWQDGNVFSCSVMHEALHNHYTQKSLSLSPG
light: DIQMTQSPASLSASVGETVTITCRASGNIHNYLAWYQQKQGKSPQLLVYNAKTLADGVPSRFSGSGSGTQYSLKINSLQPEDFGSYYCQHFWSTPRTFGGGTKLEIKRTVAAPSVFIFPPSDEQLKSGTASVVCLLNNFYPREAKVQWKVDNALQSGNSQESVTEQDSKDSTYSLSSTLTLSKADYEKHKVYACEVTHQGLSSPVTKSFNRGEC
notes: mock mAb^2: CD137 site in the CH3, Fab against hen egg lysozyme
B2: FS22-053-009/HeID1.3 (bispecific antibody, human IgG1, kappa)
heavy: B1 heavy with Y417E, Y418H, N419T, Q422L
light: B1 light
notes: mock mAb^2; also called FS22-053-009 (mock mAb^2 format)
B3: FS22-053-010/HeID1.3 (bispecific antibody, human IgG1, kappa)
heavy: B1 heavy with Y417D, N419M, Q422L
light: B1 light
notes: mock mAb^2; also called FS22-053-010 (mock mAb^2 format)
B4: FS22-172 in HeID1.3 mock mAb^2 format (bispecific antibody, human IgG1, kappa)
heavy: QVQLQESGPGLVRPSQTLSLTCTVSGSTFSGYGVNWVRQPPGRGLEWIGMIWGDGNTDYNSALKSRVTMLVDTSKNQFSLRLSSVTAADTAVYYCARERDYRLDYWGQGSLVTVSSASTKGPSVFPLAPSSKSTSGGTAALGCLVKDYFPEPVTVSWNSGALTSGVHTFPAVLQSSGLYSLSSVVTVPSSSLGTQTYICNVNHKPSNTKVDKKVEPKSCDKTHTCPPCPAPELLGGPSVFLFPPKPKDTLMISRTPEVTCVVVDVSHEDPEVKFNWYVDGVEVHNAKTKPREEQYNSTYRVVSVLTVLHQDWLNGKEYKCKVSNKALPAPIEKTISKAKGQPREPQVYTLPPSRDELRKYYPPYNQVSLTCLVKGFYPSDIAVEWESNGQPENNYKTTPPVLDSDGSFFLYSKLTVGADRWLEGNVFSCSVMHEALHNHYTQKSLSLSPG
light: B1 light
notes: mock mAb^2
B5: FS22-053-012/HeID1.3 (bispecific antibody, human IgG1, kappa)
heavy: B1 heavy with Y417D, Y418H, N419M, Q422L, D423E
light: B1 light
notes: mock mAb^2; also called FS22-053-012 (mock mAb^2 format)

What was measured:
[1] = target: human CD137, cell-surface (human, UniProt Q07011 24-255); test: cell-based or functional assay
Sequence of human CD137, cell-surface (Q07011 24-255): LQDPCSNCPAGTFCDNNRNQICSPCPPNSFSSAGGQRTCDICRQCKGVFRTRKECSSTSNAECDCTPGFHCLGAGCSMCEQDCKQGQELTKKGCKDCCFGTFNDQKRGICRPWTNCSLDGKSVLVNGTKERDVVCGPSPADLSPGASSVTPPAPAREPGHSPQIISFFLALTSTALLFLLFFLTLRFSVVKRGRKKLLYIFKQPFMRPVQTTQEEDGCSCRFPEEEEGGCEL

[2] = target: T1, cCD137-mFc-Avi; test: SPR, mAb^2 captured by anti-human Fab, antigen in flow, 1:1 Langmuir fit
Procedure: (§1) An anti-human Fab capture antibody was immobilised on all four flow cells of a CM5 series S chip (GE Healthcare #BR-1005-30) to an average surface density of 6000 RU following the manufacturer's recommendations (GE Healthcare, human Fab capture Kit, #28958325). […] Each mAb² was captured to approximately 150 RU by injecting a 3 μg/ml solution of mAb² diluted in HBS-EP+ buffer (GE Healthcare #BR1006-69) for 60 seconds at 30 μl/min. Then different concentrations of human, cyno or mouse CD137 antigen (unbiotinylated human, cyno or mouse CD137-mFc-Avi or human CD137-Avi-His) in HBS-EP+ buffer were flowed over the chip for 3 min at 60 μl/min and then allowed to dissociate for 10 minutes. After each antigen concentration the chip was regenerated by infecting 10 mM glycine pH 2.1 at a flow rate of 30 μl/min for 30 seconds. Buffer HBS-EP+ was injected before the highest concentration of antigen and after the lowest concentration of antigen for reference subtraction, and one of the concentrations at random was repeated twice. The binding kinetics were fit with a 1:1 Langmuir model to generate equilibrium binding constants (KD) for each sample. Data analysis was performed with BiaEvaluation software version 3.2.

[3] = target: T4, hCD137-mFc-Avi (human; mouse, UniProt Q07011 24-186, biotin on the Avi sequence where the biotinylated form was used); test: as above
T4 construct: also called human CD137-mFc-Avi; dimeric human CD137; not shown: mouse IgG2a Fc domain (mIgG2a Fc)
T4 sequence (Q07011 24-186): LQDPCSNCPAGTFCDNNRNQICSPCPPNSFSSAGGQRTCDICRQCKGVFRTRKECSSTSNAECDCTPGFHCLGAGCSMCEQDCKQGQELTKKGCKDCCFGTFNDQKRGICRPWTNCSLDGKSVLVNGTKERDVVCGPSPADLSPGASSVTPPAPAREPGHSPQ
Procedure: as §1

[4] = target: T2, human GITR; test: SPR, receptor amine-coupled to CM5 (~1000 RU)
Procedure: (§2) The specificity of the anti-human CD137 Fcabs for human CD137 compared to other related TNFSFR family members was tested. 8 of the Fcabs were tested in mock mAb² (HeID1.3) format and measured by SPR in a Biacore T200 (GE Healthcare) by testing for binding to other human TNFRSF receptors: CD40, OX40 and GITR. Amine coupling (amine coupling kit, GE Healthcare, BR-1000-50) was used to coat human CD40, GITR and OX40 to approximately 1000 RU in Biacore CM5 chips (GE Healthcare, cat no 29149603). […] The chip was regenerated by injection of 10 mM glycine pH 2.5 for 12 s at 30 μl/min. Antibodies specific to the different TNFRSF members were used as positive controls to verify Biacore chip coating. Data was double reference subtracted and analysed using BIAevaluation 3.2 software.

[5] = target: human CD40 (human, UniProt P25942 21-193, limits assumed); test: SPR, receptor amine-coupled to CM5 (~1000 RU)
Sequence of human CD40 (P25942 21-193 limits assumed): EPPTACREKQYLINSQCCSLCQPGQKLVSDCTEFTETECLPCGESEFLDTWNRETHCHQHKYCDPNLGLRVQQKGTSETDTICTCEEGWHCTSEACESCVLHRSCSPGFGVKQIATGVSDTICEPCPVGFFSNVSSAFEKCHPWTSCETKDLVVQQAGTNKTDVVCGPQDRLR
Procedure: as §2

[6] = target: T3, human OX40; test: SPR, receptor amine-coupled to CM5 (~1000 RU)
Procedure: as §2

Binder | luciferase signal, NF-κB reporter assay (HEK.FRT.luc.hCD137), fold increase on Protein L crosslinking [1] [fold] | Kd [2] [nM] | Kd [3] [nM] | binding result [4] | binding result [5] | binding result [6]
B1 | ≥ 10 | 34 | 38 |  |  | 
B2 |  |  |  | no binding (tested: 1 µM) | no binding (tested: 1 µM) | no binding (tested: 1 µM)
B3 |  |  |  | no binding (tested: 1 µM) | no binding (tested: 1 µM) | no binding (tested: 1 µM)
B4 | ≥ 10 | 203 | 52 |  |  | 
B5 |  |  |  | no binding (tested: 1 µM) | no binding (tested: 1 µM) | no binding (tested: 1 µM)

From patent publication US20250346679A1 (INVOX PHARMA, published 2025)
